{"source": "the DeepSol protein solubility set", "data": [{"experiment": "soluble on expression in E. coli; label from the status in PepcDB or PDB records", "values": [{"sequence": "MSLARMSRRSRGAAGAQSVVKPETPMAQVLHQFNYCPCQYLEQNWIVPKQPWLLNLDGWRDNPNFNLWCLEEWALAPVPETAFNKPHHSLALLPPDALSTLMLTIGGALHSFAMRQVVLKKPKQCLNNVFGLDIARFLIQQGPMLLSQWPKGWQKALPDVMKEDEVERHMLKQGYAWMKFILASSSHDILLRWQFKLDQSLSQVKENTSWLVEEQRDLAYRLTKKIAKQVIPQWFHLLKEGHHHHHH", "soluble on expression in E. coli": "not soluble"}, {"sequence": "VTSSPFKTIKSDEIFAAAQKLMPGGVSSPVRAFKSVGGQPIVFDRVKDAYAWDVDGNRYIDYVGTWGPAICGHAHPEVIEALKVAMEKGTSFGAPCALENVLAEMVNDAVPSIEMVRFVNSGTEACMAVLRIMRAYTGRDKIIKFEGCYHGHADMFLVKAGSGVATLGLPSSPGVPKKTTANTLTTPYNDLEAVKALFAENPGEIAGVILEPIVGNSGFIVPDAGFLEGLREITLEHDALLVFDEVMTGFRIAYGGVQEKFGVTPDLTTLGKIIGGGLPVGAYGGKREIMQLVAPAGPMYQAGTLSGNPLAMTAGIKTLELLRQPGTYEYLDQITKRLSDGLLAIAQETGHAACGGQVSGMFGFFFTEGPVHNYEDAKKSDLQKFSRFHRGMLEQGIYLAPSQFEAGFTSLAHTEEDIDATLAAARTVMSAL", "soluble on expression in E. coli": "soluble"}, {"sequence": "MVLFMLSESKKKATNWEQITKKHGSVQCVKGCCCYSLIISFMKPKEKKDFVLFCLSSVVTCCRPIQIPSRQEKKGKFLCFFLLVLIR", "soluble on expression in E. coli": "soluble"}, {"sequence": "RQRTASLIDTNHWLSRIIDLVPHPIFLKDHNGKYLLANIAQGELFGKKPEELLGKTDIDFVYNSDEYVVIKQSDDKVVSTRKTVVLPEQIVTLGDIKYYLYTSKVPLISPVDGELRILGVSINLT", "soluble on expression in E. coli": "not soluble"}, {"sequence": "TCPAACHCPLEAPKCAPGVGLVRDGCGCCKVCAKQLNEDCSKTQPCDHTKGLECNFGASSTALKGICRAQSEGRPCEYNSRIYQNGESFQPNCKHQCTCIDGAVGCIPLCPQELSLPNLGCPNPRLVKVTGQCCEEWVCDEDSIKDPMEDQDGLLGKELGFDASEVELTRNNELIAVGKGSSLKRLPVFGMEPRILYNPLQGQKCIVQTTSWSQCSKTCGTGISTRVTNDNPECRLVKETRICEVRPCGQPVYSSLKKGKKCSKTKKSPEPVRFTYAGCLSVKKYRPKYCGSCVDGRCCTPQLTRTVKMRFRCEDGETFSKNVMMIQSCKCNYNCPHANEAAFPFYRLFNDIHKFRD", "soluble on expression in E. coli": "soluble"}, {"sequence": "MAHHHHHHMMKEETLNSDNSSAEVSVESPSFSFNCAHFIAYNGFRETLHGHNYNVSLKVRGYVRDDGYVIDFSILKEKVKKVCNKLDHHFILPIYSDVLKFENVKNNIKIICEDNSEYSFPERDCIKLPIKHSSTEEIGQYILNQLIEEMDVSLLKSRHIHYIEISVSESPTQKAIVHKYI", "soluble on expression in E. coli": "soluble"}, {"sequence": "MGSDKIHHHHHHVLNVNELVKTELHCHLDGSLSLGVIRQLAQMAKITIPAEDEALRKLVSVHGKVDSLMAYLKLFDFVRPLLQTATALELAAYDLVRQAASDKVIYIEVRFAPELSTDQDLTILEAVSAVLVGLNRGQEDFGVLAKLLVCGLKQTNTNQTKELFSAIADLAPKGLVGFDFAGNEADYPTEELRDIIQFTQSLGYPMTFHAGECGCVINVIQALELGIRRIGHGTALTRNPEAIQAFVNSGATLEMCLTSNLQTGAADSIEYFPYRELVEAGANITINTDNRTVSNTTLNREYQLFVEYFGTSKADFYRFNQNAIQASFASEGEKKVLLELLDQQY", "soluble on expression in E. coli": "not soluble"}, {"sequence": "STGMRPRGAAFAAGPPGDLHLGTAIGFAGAIWRSRSPAMSTLLDIKSSVLRQVQVCPSFRRRTEQDPGSASADPQEPATGAWKPGDGVEFFAHMRLMLKKGEGRQGLPCLEVPLRSGSPAPPEPVDPSLGLRALAPEEVEMLYEEALYTVLYRAGTMGPDQVDDEEALLSYLQQVFGTSLEEHTEAIERVRKAKAPTYALKVSVMRAKNLLAKDPNGFSDPYCMLGILPASDATREPRAQKEQRFGFRKGSKRGGPLPAKCIQVTEVKSSTLNPVWKEHFLFEIEDVSTDQLHLDIWDHDDDVSLVEACRKLNEVIGLKGMGRYFKQIVKSARANGTAGPTEDHTDDFLGCLNIPVREVPVAGVDRWFKLEPRSSASRVQGHCHLVLKLITTQRDTAMSQRGRSGFLSHLLLLSHLLRLEHSAEEPNSSSWRGELSTPAATILCLHGAQSNLSPLQLAVLHWQVSSRHHQTCTLDYSYLLGLLEDMQAHWEEAPSLPQEQEESLADSLSAFSEFGLQLLRQLRDYFPATNSTAVHRLELLLKCLGKLQLFQPSFEICPFESELNMDIAAALKRGNREWYDRILNDKSPREQPGPQRLPGLVVLADAVYDDLQFCYSVYASLFHSILNVDVFTLTFRQLERLVAEEAWVLTEELSPKMTLEVASGLFELYLTLADLQRFWDSIPGRDSRSLALAGIHAPFLPAVKLWFQVLRDQAKWRLQGAVDMDTLEPVDASSRHSSSAATAGLCLSHIQELWVRLAWPDPAQAQGLGTQLGQDVCEATLFYTELLRKKVDTQPGAAGEAVSEALCVVLNNVELVRKAAGQALKGLAWPEGATGPEGVLPRPLLSCTQALDDDLQREAHTVTAHLTSKMVGDIRKYVQHISLSPDSIQNDEAVAPLMKYLDEKLALLNASLVKGNLSRVLEALWELLLQAILQALGANRDVSADFYSRFHFTLEALVSFFHAEGQGLPLESLRDGSYKRLKEELRLHKCSTRECIEQFYLDKLKQRTLEQNRFGRLSVRCHYEAAEQRLAVEVLHAADLLPLDANGLSDPFVIVELGPPHLFPLVRSQRTQVKTRTLHPVYDELFYFSVPAEACRRRAACVLFTVMDHDWLSTNDFAGEAALGLGGVTGVARPQVGGGARAGQPVTLHLCRPRAQVRSALRRLEGRTSKEAQEFVKKLKELEKCMEADP", "soluble on expression in E. coli": "soluble"}, {"sequence": "GSMDQRQKLQHWIHSCLRKADKNKDNKMNFKELKDFLKELNIQVDDGYARKIFRECDHSQTDSLEDEEIETFYKMLTQRAEIDRAFEEAAGSAETLSVERLVTFLQHQQREEEAGPALALSLIERYEPSETAKAQRQMTKDGFLMYLLSADGNAFSLAHRRVYQDMDQPLSHYLVSSSHNTYLLEDQLTGPSSTEAYIRALCKGCRCLELDCWDGPNQEPIIYHGYTFTSKILFCDVLRAIRDYAFKASPYPVILSLENHCSLEQQRVMARHLRAILGPILLDQPLDGVTTSLPSPEQLKGKILLKGKKLGGLLPAGGENGSEATDVSDEVEAAEMEDEAVRSQVQHKPKEDKLKLVPELSDMIIYCKSVHFGGFSSPGTSGQAFYEMASFSESRALRLLQESGNGFVRHNVSCLSRIYPAGWRTDSSNYSPVEMWNGGCQIVALNFQTPGPEMDVYLGCFQDNGGCGYVLKPAFLRDPNTTFNSRALTQGPWWRPERLRVRIISGQQLPKVNKNKNSIVDPKVIVEIHGVGRDTGSRQTAVITNNGFNPRWDMEFEFEVTVPDLALVRFMVEDYDSSSKNDFIGQSTIPWNSLKQGYRHVHLLSKNGDQHPSATLFVKISIQD", "soluble on expression in E. coli": "soluble"}, {"sequence": "MGKGVRDPGSDGSLRRKELAMIKVEDMMTRHPHTLLRTHTLNDAKHLMEALDIRHVPIVDANKKLLGIVSQRDLLAAQESSLQRSAQGDSLAFETPLFEVMHTDVTSVAPQAGLKESAIYMQKHKIGCLPVVAKDVLVGIITDSDFVTIAINLLELQEESEPDELDEEQ", "soluble on expression in E. coli": "not soluble"}, {"sequence": "MSLKNNIYGNVPCFLNSKNLNQTNTLDTDVIVYGAPFEGESTWGDYTGVELGPKQIRVCSARYSQYLPELNHIDISEHLTMGDVGDVPFVAHDNKQSYDNISDFAKKLWDSGKFLVGFGGEHGVTYPILKALTETGKKVGIIHLDAHYDNMPDYEGEPYARNTPFMRLYETDGIRNESIIHTGIHGPRNKPETGRFAQEAGAVTLTINDIRAAKDLKTYAHEIYAQASKDVDVVYLTICSDVLDFAFNPGGPVDGNGLSSYELLTMIHEFGKLGLGGMDYVEVYPMMDANQNSAHFVSTAVLYVLAGHVAYLNQTEGHHHHHH", "soluble on expression in E. coli": "soluble"}, {"sequence": "MAIIFNPNKKIFTLQTAHTTYQMQVDRLGYLLHLYYGAKSTCDMDYVLTYADRGFSGNPYAAGMNRTYSLDTLPQEYPTLGTGDFRNIALDIKNEQGTESVELLYKSYEIRDGKYALKGLPAVWASDDEAQTLEIVLGDDIAGVEVHLLYGVLEACDVITRSVLIKNTGSGNITIEKAHAACLDMVYGDYDVIRFYGKHAMERNLERTHLGHGTLSFGSRRGTSSHQYNPAVILAQRDTTENAGDCYGMLFVYSGNFSCEAEKDQINQTRLLMGLSDELFSYPLAAGETFTVPEVIMSYSADGFSQLSHQYHTCISEHVCRSRFAHEVRPVLINSWEAAYFDFTGDTIVDLAKEAASLGIDMVVMDDGWFGKRDDDNSSLGDWFVNEKKLGGTLSELIDRVHAQGVKFGIWIEPEMVNEDSNLYREHPDWAIQIPGKLPVRSRNQLILDFSRKEVRDNIFNQICAVFDQGKIDYVKWDMNRSMADVYAGNLAYDYVLGVYDFMERLVTRYPDILLEGCSGGGGRFDAGMLYYSPQIWCSDNTDAINRTRIQYGTSFFYPVSSMGAHVSAVPNHQTGRVTSLKTRGITAMAGTFGYELNPALLSDEEKEEIREQIKTFKKYEMLINEGTYWRLTSPFEDEVAAWMSVSRTKDRALVSVVRLYAEANAAACYVKLKGLESDAVYIEENTGRQYTGAALMNAGIPLPFAVKEYEAYQFSFIRLDEAKKLYDEIKKVCGNLKLNEADTADSASDNRLEHHHHHH", "soluble on expression in E. coli": "soluble"}, {"sequence": "AKDDKVTVLSIERGNKLVYLEKLGLRGDQFYYKIERIRESNGVVYIYHTSYIPEQYINANYPNLEYYSSIYNRFKLDYHIHMNDEHFEEINEIVFPTPEHAASVLGVDEQFPTVLQTKITKLESTGQVLEYSETYKRSDYYKIKFISCDRDH", "soluble on expression in E. coli": "not soluble"}, {"sequence": "MGSDKIHHHHHHVYKALFFDVDDTLLNFEQCSREALGKTFRHFSMDYDDTVYELFRSIDQRLWLQQKQGELTVQDVINLRFQELFKQLQLGCSHIPLQTMFQERLAEEFFTEPHAAESLGYLSARYQLFVTSNGILKTQLKRLELAGLLPYFTDVFVSDHIGHEKPSVRFFEECLQRSRLKPSEVLLIGDSLEADMVGAQTSKMDSCWYNPKHRNTDSDVEIDYIISDLLQLKDILQ", "soluble on expression in E. coli": "not soluble"}, {"sequence": "MGSDKIHHHHHHVPPLRLAIVGDIHDQWTLADQQLLLQLQPDLTLFVGDFGNESLALVQAIAAIPLRKAVILGNHDAWYTATRWRRSQCPYDWMRENRFEQQLEALGGLHIGYGRLDFPEWNLSVVGGRPCSAGGSQWQHRRFYRHYYQVGSFPESAQRIADCAIASPCDRVLFLAHCGPSGLGDQPEDPCGKDWSRPGGDFGDPDLAMAIAQVQAQKVVPLVCFGHMHHRLRHRRDRPRRSWHRDTAGTVYLNAAASPRILKAQQTTLHHLLWVELSDSLVTAQQTWWTPAGVLVQSEELPLVPQPA", "soluble on expression in E. coli": "not soluble"}, {"sequence": "MSESFAQLFEESLKVLETRQGSIVSGTVVAIQKGFVLVDAGLKSESAIPVAEFLNAQGELEIQVGDTVNVALDAVEDGFGETKLSREKAVRHESWIELEKAYEEKATVIGLIGKVKGGFTVELNGVRAFLPGSLVDTRPAREADHLLGKELEFKVIKLDQKRNNVVVSRRAVIESENSQEREQVLENLVEGSEVKGVVKNLTEYGAFVDLGGVDGLLHITDMAWKRVKHPSEIVNVGDEVTVKVLKFDKDRTRVSLGLKQLGQDPWAAIAENHPVNSKLTGKVTNLTDYGCFVEILDGVEGLVHVSEMDWTNKNIHPSKVVSLGDTVEVMVLEIDEERRRISLGLKQCKANPWTQFADTHNKGDKVTGKIKSITDFGIFIGLEGGIDGLVHLSDISWSISGEEAVRQYKKGDEVSAVVLAVDAVKERISLGIKQLEEDPFNNFVAINKKGAVVSATVVEADAKGAKVELAGGVEGYIRSADLTSEVAVGDVVEAKYTGVDRKSRIVHLSVKAKDQAEEAAAVASVNNKQEDIVIPNAMAEAFKAAKGELEHHHHHH", "soluble on expression in E. coli": "not soluble"}]}]}
